The values that follow are results of earlier work, collected in paper PMC6473736.

This data set deals with Nterm (UniProt position 2, ----MVHLTPE). As to conditions: not stated (haem ligation state not given).

Regarding “Human haemoglobin (adult Hb, alpha2beta2) (Homo sapiens)”, the pKa entry was “approximately 7.8 (α-chain) and 6.8 (β-chain)”.
